Test results reported in US20110305670A1.

Key:
[1] = target: envelope glycoprotein of the R5 isolate YU2, on virus (HIV-1 (YU2 isolate)) (UniProt P35961); test: cell-based or functional assay
[2] = target: envelope glycoprotein of the R5X4 isolate 89.6, on virus (HIV-1 (89.6 isolate)) (UniProt Q73372); test: cell-based or functional assay

Sequence of UniProt P35961 (P35961 32-843): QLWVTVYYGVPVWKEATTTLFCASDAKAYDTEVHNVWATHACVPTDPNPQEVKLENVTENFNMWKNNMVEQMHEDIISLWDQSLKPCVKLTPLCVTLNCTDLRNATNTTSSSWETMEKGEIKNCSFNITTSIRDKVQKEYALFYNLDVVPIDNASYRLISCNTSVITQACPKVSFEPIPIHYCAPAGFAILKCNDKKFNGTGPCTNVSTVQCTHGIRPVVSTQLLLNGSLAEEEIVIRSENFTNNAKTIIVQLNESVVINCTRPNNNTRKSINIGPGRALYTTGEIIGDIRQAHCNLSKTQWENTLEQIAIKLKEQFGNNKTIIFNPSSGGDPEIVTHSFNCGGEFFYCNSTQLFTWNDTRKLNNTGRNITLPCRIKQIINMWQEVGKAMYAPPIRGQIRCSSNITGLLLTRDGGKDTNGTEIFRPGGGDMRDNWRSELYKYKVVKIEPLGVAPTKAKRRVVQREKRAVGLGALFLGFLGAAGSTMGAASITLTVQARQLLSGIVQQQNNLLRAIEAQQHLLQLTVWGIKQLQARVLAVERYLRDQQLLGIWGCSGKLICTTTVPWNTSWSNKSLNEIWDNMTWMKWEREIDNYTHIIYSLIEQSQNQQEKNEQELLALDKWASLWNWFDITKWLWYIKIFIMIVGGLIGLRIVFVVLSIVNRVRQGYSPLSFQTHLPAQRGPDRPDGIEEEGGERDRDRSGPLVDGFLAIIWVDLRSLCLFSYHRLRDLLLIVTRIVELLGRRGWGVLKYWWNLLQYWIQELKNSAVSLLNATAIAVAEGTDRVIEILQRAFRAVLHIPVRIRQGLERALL

eCD4-Ig (from UniProt P01730 26-203) (Fc fusion)
IC50 difference between CD4-Ig and eCD4-Ig (fold) [1]: 3 fold
neutralization of GFP-expressing HIV-1, IC50 [1]: 2 nM
IC50 difference between CD4-Ig and eCD4-Ig (fold) [2]: 50 fold
neutralization of GFP-expressing HIV-1, IC50 [2]: 600 pM
